Measurements from patent US20230265183A1 (MABWELL SHANGHAI BIOSCIENCE, published 2023).
Numbering of substitutions follows the chain as printed.

T1: human Nectin-4 (human, UniProt Q96NY8 32-510)
T1 sequence (looked up): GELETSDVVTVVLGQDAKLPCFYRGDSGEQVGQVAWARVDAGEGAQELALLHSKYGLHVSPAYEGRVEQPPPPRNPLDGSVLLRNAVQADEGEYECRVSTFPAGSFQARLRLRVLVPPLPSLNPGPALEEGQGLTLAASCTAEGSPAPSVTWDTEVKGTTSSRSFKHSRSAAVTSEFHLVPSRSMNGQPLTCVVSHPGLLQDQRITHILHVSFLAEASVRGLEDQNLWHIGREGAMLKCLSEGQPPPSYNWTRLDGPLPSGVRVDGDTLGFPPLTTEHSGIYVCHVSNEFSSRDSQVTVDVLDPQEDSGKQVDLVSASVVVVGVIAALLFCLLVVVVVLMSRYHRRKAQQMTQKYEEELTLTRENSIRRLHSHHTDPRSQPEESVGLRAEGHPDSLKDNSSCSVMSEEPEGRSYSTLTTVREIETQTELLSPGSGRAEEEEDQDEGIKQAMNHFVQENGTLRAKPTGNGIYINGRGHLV

T2: His-tagged human NECTIN4 (human, UniProt Q96NY8 32-349)
T2 construct: Antigen of the BIAcore assay; also called antigen; recombinant NECTIN4 protein; not shown: His tag
T2 sequence: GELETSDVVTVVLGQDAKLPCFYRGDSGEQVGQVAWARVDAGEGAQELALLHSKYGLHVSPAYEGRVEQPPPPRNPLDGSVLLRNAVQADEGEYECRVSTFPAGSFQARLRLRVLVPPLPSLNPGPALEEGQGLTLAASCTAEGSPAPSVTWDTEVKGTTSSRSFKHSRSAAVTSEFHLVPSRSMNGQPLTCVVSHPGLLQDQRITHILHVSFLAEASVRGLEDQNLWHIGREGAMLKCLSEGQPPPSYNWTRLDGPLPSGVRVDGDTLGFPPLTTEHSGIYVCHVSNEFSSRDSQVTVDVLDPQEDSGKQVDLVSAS

B1: chimeric antibody 5M21 xiIgG (antibody, V domains shown)
VH: QVQLQQSGPELVKPGASVRITCKASGYTFTTYYIHWVKQRPGQGLEWIGWIYPGNVNTKYNEKFKGKATLTADKSSSTAYMQLSSLTSEDSAVYFCARGLYYFDYWGQGTTLTVSS
VL: SIVMTQTPKFLLVSAGDRLTITCKASQSVSNDVAWYQQKPGQSPKLLIYYASNRYTGVPDRFTGSGYGTDFTFTISTVQAEDLAVYFCQQDYSSPYTFGGGTKLEIKR
B2: 5M21 hz00 (antibody, human IgG1, kappa, V domains shown)
VH: QVQLVQSGAEVKKPGASVKVSCKASGYTFTTYYIHWVRQAPGQRLEWMGWIYPGNVNTKYNEKFKGRVTITRDTSASTAYMELSSLRSEDTAVYYCARGLYYFDYWGQGTLVTVSS
VL: DIQMTQSPSSLSASVGDRVTITCKASQSVSNDVAWYQQKPGKVPKLLIYYASNRYTGVPSRFSGSGSGTDFTLTISSLQPEDVATYYCQQDYSSPYTFGGGTKVEIKR
notes: Humanized
B3: 5M21 hz11 (antibody, human IgG1, kappa, V domains shown)
VH: B2 VH with R72A, T74K
VL: B2 VL with V83L, Y87F
notes: Humanized
B4: 5M21 hz10 (antibody, human IgG1, kappa, V domains shown)
VH: B2 VH with R72A, T74K
VL: B2 VL
notes: Humanized
B5: 5M21 hz01 (antibody, human IgG1, kappa, V domains shown)
VH: B2 VH
VL: B2 VL with V83L, Y87F
notes: Humanized
B6: chimeric antibody 42D20 xiIgG (antibody, V domains shown)
VH: QVQLKESGPGLVAPSQSLSISCTVSGFSLIDYGVSWIRQPPGKGLEWLGVIWGDGKIYYNSVLKSRLSISKDNSKSQVFLKMNSLQTDDTAMYYCAKQGGLLFYAMDYWGQGTSVTVSS
VL: DIVMTQSPSSLAMSVGQRVTMNCKSSQSLLNSYSQKNYLAWYQQKPGQSPKLLIYFASTRESGVPDRFIGSGSETDFTLTISSVQAEDLADYFCQQHYNTPFTFGSGTKLEIKR
B7: 42D20 hz00 (antibody, V domains shown)
VH: QVQLQESGPGLVKPSETLSLTCTVSGFSLIDYGVSWIRQPPGKGLEWIGVIWGDGKIYYNSVLKSRVTISVDTSKNQFSLKLSSVTAADTAVYYCARQGGLLFYAMDYWGQGTLVTVSS
VL: DIVMTQSPDSLAVSLGERATINCKSSQSLLNSYSQKNYLAWYQQKPGQPPKLLIYFASTRESGVPDRFSGSGSGTDFTLTISSLQAEDVAVYYCQQHYNTPFTFGAGTKLELKR
notes: Humanized
B8: 42D20 hz03 (antibody, V domains shown)
VH: B7 VH
VL: B7 VL with S32T, P49S, G74E, V89L, Y93F
notes: Humanized
B9: 42D20 hz23 (antibody, V domains shown)
VH: B7 VH with D54E, V71K, T73N, N76S, F78V, R97K
VL: B7 VL with S32T, P49S, G74E, V89L, Y93F
notes: Humanized
B10: 42D20 hz01 (antibody, V domains shown)
VH: B7 VH
VL: B7 VL with P49S, G74E, V89L, Y93F
notes: Humanized
B11: 42D20 hz21 (antibody, V domains shown)
VH: B7 VH with D54E, V71K, T73N, N76S, F78V, R97K
VL: B7 VL with P49S, G74E, V89L, Y93F
notes: Humanized

Target: T1, human Nectin-4
Experiment: cell-based or functional assay

Endocytosis efficiency (%)	Binder
56.9	B1
54.8	B2
64.4	B3
64.8	B4
62.2	B5

Target: T1, human Nectin-4
Experiment: FACS on BT474 cells
Experimental: (§1) The solutions of different concentrations were added to 384-well plates, 10 µl per well.
(§2) BT474 cells (breast cancer cells) expressing Nectin-4 on the cell surface were collected by centrifugation at 100 g at room temperature for 5 minutes, and then the cells were washed with PBS containing 0.5% BSA once and were centrifuged at 100 g at room temperature for 5 minutes. […] After incubation at 4° C. for 1 hour, fluorescently labeled goat anti-human IgG secondary antibody was added. After continued incubation at 4° C. for 1 hour, mean fluorescence readings of the cell populations were analyzed by a flow cytometer.
(§3) The experiment results of the binding of engineered humanized molecules of the present disclosure to BT474 cells by FACS assay are shown in panels 3B and 3C in FIG. 3 and Tables 6 and 7.

EC50 [µg/mL]	Binder
0.077	B6
1.34	B7
0.0676	B8
0.0503	B9
0.132	B10
0.285	B11

Target: T1, human Nectin-4
Experiment: FACS on BT474 cells
Remark: another data set of the same source
Experimental: as §1, §2, §3

EC50 [µg/mL]	Binder
46.1	B1
52.2	B2
44.5	B3
44.3	B4
48.1	B5

Target: T1, human Nectin-4
Experiment: cell-based or functional assay
Remark: another data set of the same source

Endocytosis efficiency (%)	Binder
54	B6
39.1	B7
41.1	B8
45	B9
41.5	B10
43.9	B11

Target: T2, His-tagged human NECTIN4
Experiment: SPR (BIAcore S200), antigen on CAP chip, antibody as analyte, 1:1 fit
Experimental: Interactions between the antibodies and the antigen were measured using a BIAcore instrument S200 from GE. Referring to the instructions provided in Biotin Capture Kit from GE Healthcare, the analytical channel and the control sample channel on CAP sensor chip were first coupled with antigen i.e. His-tagged human NECTIN4, then samples containing antibodies (diluted 3-fold from an initial concentration of 20 nM respectively and solutions of each antibody of 8 concentrations were obtained totally, and the concentration 0.741 nM was set to be repeated) were allowed to flow through both the analytical channel and the sample channel, and the photoreactions upon antibody-antigen binding were measured. Association constant Kon and dissociation constant Koff and affinity constant KD of each antibody were finally obtained by instrument software fitting (1:1 binding mode) analysis.

Kd [nM]	koff [s⁻¹]	kon [M⁻¹ s⁻¹]	Binder
1.01	0.000798	790000	B6
